Assays:
[1] = biological target: T1, HIV-1 gp120 monomer, strain HxBc2 (HIV-1, strain HxBc2), P04578; assay: SPR; conditions: remark: other sources report otherwise
[2] = biological target: T1, HIV-1 gp120 monomer, strain HxBc2 …; assay: SPR; conditions: remark: other sources report otherwise; remark: listed apart in the source

B1: wild-type cyanovirin-N (WT CV–N), P81180 1-101 (natural protein)
chain: LGKFSQTCYNSAIQGSVLTSTCERTNGGYNTSSIDLNSVIENVDGSLKWQPSNFIETCRNTQLAGSSELAAECKTRAQQFVSTKINLDDHIANIDGTLKYE
[1]
  Kd: 250 nM
[2]
  Kd: 260 nM
